Test results published in patent publication US20210395392A1 (Bristol-Myers Squibb, published 2021).
Where a chain is given by its changes, count along the chain named.

T1: Mouse MerTK on mMerTK-expressing cells (mouse, UniProt Q60805 19-994)
T1 construct: Receptor construct of the signaling assay is not described
T1 sequence: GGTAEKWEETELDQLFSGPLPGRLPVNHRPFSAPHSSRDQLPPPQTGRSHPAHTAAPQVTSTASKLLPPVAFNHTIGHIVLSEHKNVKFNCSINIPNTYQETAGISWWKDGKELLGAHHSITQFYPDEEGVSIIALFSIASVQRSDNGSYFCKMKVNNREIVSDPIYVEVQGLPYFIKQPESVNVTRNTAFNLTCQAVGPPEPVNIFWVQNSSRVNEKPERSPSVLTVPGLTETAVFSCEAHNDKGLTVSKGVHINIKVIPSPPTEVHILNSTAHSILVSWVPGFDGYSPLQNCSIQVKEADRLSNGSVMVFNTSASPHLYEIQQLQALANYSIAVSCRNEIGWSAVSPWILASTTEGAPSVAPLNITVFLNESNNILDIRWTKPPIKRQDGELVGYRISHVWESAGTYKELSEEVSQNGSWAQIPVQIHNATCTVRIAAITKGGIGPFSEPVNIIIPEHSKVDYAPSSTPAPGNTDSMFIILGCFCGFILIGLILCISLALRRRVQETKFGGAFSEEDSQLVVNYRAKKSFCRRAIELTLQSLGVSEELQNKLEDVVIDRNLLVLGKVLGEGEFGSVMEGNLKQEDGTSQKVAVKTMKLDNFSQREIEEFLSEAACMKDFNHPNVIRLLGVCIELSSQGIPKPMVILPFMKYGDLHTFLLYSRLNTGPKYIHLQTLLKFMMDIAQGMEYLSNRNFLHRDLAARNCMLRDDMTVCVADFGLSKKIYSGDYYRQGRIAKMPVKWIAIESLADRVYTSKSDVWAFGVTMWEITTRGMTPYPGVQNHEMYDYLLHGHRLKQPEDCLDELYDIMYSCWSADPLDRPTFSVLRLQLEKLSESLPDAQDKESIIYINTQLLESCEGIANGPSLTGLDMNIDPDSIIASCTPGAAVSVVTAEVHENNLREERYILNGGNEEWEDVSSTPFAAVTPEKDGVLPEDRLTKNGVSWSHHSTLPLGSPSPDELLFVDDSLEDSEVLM

B1: HuMAb 1B4 (antibody, human IgG1, kappa, V domains shown)
VH: QLQLQESGPGLVKPSETLSLTCAVSGYSISSGNYWGWIRQSPGKGLEWIGSVDHSGSTYYSPSLKSRVTISVDTSKNQFSLKLNSVTAADTADYYCARNTMIRGVMDWFDPWGQGTLVTVSS
VL: AIQLTQSPSSLSASVGDRVTITCRASQGISSALAWYQQKPGKAPKVLIYDASSLESGVPSRFSGSGSGTDFTLTISSLQPEDFATYYCQQFRSYPTFGQGTKVEIKR
notes: Human anti-hMerTK mAb, Bin 1
B2: HuMAb 22I16 (antibody, human IgG1, kappa, V domains shown)
VH: EVQLVESGGGLVQPGGSLRLSCAASGFTFSSYSMNWVRQAPGKGLEWVSYIISGSDTIFYADSVKGRFTISRDNAKNSLYLQMNSLRDEDTAVYYCARDETVVRGVINYFDYWGQGTLVTVSS
VL: B1 VL with A25S, V46L, R92I, K102R, V103L
notes: Human anti-hMerTK mAb, Bin 1; also called 22116
B3: HuMAb 8N42 (antibody, V domains shown)
VH: QVQLQQWGAGLLKPSETLSLTCAVYGGSFSIYYWSWIRQPPGKGLELIGEINDEGNTNYNPSLKSRVTISVDTSKNQFSLKLSSVTAADTAVYYCARGGTGDIHAFDIWGQGTMVTVSS
VL: DIQMTQSPSSLSASVGDRVTITCRASQGISKWLAWYQQKPEKAPKSLIYAASSLQSGVPSRFSGSGSGTDFTLTISSLQPEDFATYYCQQYNSYPWTFGQGTKVEIKR
notes: Human anti-hMerTK mAb, Bin 1
B4: HuMAb 4K10 (antibody, human IgG1, kappa, V domains shown)
VH: QVQLQQWGAGLLKPSETLSLTCAVYGGSFSGYYWSWLRQPPGKGLEWIGEISHSGSTNYNPSLKSRVTISVDTSKNQFSLKLSSVTAADTAVYYCARALSRYWYFDLWGRGTLVTVSS
VL: EIVLTQSPATLSLSPGERATLSCRASQSASNYLAWYQQKPGQAPRLLIYDASNRATGIPARFSGSGSGTDFTLTISSLEPEDFAVYYCYQRSQWPISFGQGTRLEIKR
notes: Human anti-hMerTK mAb, Bin 3
B5: HuMAb 25J60 (antibody, human IgG1, kappa, V domains shown)
VH: QVQLVQSGAEVKKPGASVKVSCKTSGNTQIRYYMYWVRQAPGQGLEWMGILNPNQDQTTYAQKFQGRVTMTRDTSTSTVYMELSSLRSEDTAVYYCATTYRYYMDVWGQGTTVTVSS
VL: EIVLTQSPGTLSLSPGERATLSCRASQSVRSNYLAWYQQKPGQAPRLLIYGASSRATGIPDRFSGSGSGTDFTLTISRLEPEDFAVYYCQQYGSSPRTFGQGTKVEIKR
notes: Human anti-hMerTK mAb, Bin 2, derived from HuMAb 25B10 by optimization
B6: HuMAb 25J80 (antibody, human IgG1, kappa, V domains shown)
VH: B5 VH with N27R, Q29F, Y35H, L51I, N52W, Q55G, R101K, Y103A
VL: EIVLTQSPGTLSLSPGERATLSCRASQSVRSNYLAWYQQKPGQAPRLLIYGASSRATGIPDRFSGSGSGTDFTLTISRLEPEDFAVYYCQQYESPPRTFGQGTKVEIKR
notes: as for B5

Target: T1, Mouse MerTK on mMerTK-expressing cells
Test: binding to mMerTK-expressing cells; SPR not run

| Binder | binding result |
| --- | --- |
| B1 | no binding |
| B2 | no binding |
| B3 | no binding |
| B4 | no binding |
| B5 | no binding |
| B6 | no binding |

Target: T1, Mouse MerTK on mMerTK-expressing cells
Test: cell-based or functional assay

| Binder | Signaling Assay, mMerTK with Gas6, pSTAT1 IC50 (nM) |
| --- | --- |
| B1 | > 100 |
